According to the domain aggregation screens of Martell et al. (2025):

Assay: soluble fraction after stress (log2 fold change); higher = more stays soluble; pooled small domains, quantitative proteomics
Conditions: stress: 75 degC
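Further: 20 min heating vs room temperature control held 20 min.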

Row | Sequence | soluble fraction (log2)
1 | HMSWEELLEHLEKAAERGEEVRIAGVTLHDEEDFKRALRWLKEWL | -2.7
2 | HMSYIGEEKAKSIAVSNVKGAGTNNVVKVEFDYDDGRAVYEVKVVYNAMEYEFEIDASNGKILSRDAESIY | -1.45
3 | HMSYKFDSLAIILNKLDGKETVNVSSLSDELEVSARTVHRYIGTLQVAGFPIEYDKTKNSYIFSEGYTL | -0.794
4 | HMSYQFKIKNNAAVEVTVSEKNNLLGSTYGDKATVAAGMEKNVTFYTDKPDVVVDTNGNFTITVHDKEIII | 0.0601
5 | HMSYSYIYNYALKVKMDISSTGGKKPYAYYYYDHSYKLAEEILSLSEETESIELQNKYDELKDFYENP | -1.79
6 | HMSYTWHDMYLLAQEYQKEHGNLIIPRNYKGKNGLNLGYWLYKEKLKYRQGKLAPEKIIALEHIGIVWT | -1.25
7 | HMSYYKEMIRLADSIADKAHEGQTDRNGWPYISHPRRVALGARKLVSEMASSTSPDTSLEELKAEVQIVAL | -0.321
8 | HMTAAPEVRVEGLFKGAAVLKIDGQQVMLKKGRSHSSGVTLVDANAHRAIVEIDGQRHELALHMA | -0.0588
9 | HMTADIRFLNSRKFYIYKVEKGETLFSISQKFNIPQEEIIQFNKDINQQGLKAKTKLWVPAYSWL | -3.46
10 | HMTAGTGIAYSEFRSKVQEGQVKDVAIAPDRITGTLSSGQKFSTVPVNDPGLPKMLDDFNVKYSGQA | 0.139
11 | HMTAIWKTITATLTHDIATGKYAPGDRLPTEAQLAARFGVNRHTVRRAISDMNESGLTYSRRGAGVFVAQ | -2.56
12 | HMTALAVGDRVKMDKSATIYGTMRKFAAWVYATKLYVRGIDGNRVVVSTLKSGAITGAVDKKHLTK | -1.61
13 | HMTAMDTQQKKLIIMYHDIHRLRNVEHFTIQRIADHLLLNFRTVKKFLEMTQEEFDKFSENRW | -2.89
14 | HMTANPSTEEIMARVEAIPLPIKRLPPGQIVQAQTVAATVLRSNPGLDLAKAWKLAYATVTGQE | -0.15
15 | HMTANTQVENIRLELQRYMDEHGISQVTVARGIGKTHPVISQFLNNKYPGDVEEVARAIESWLTKQHEKAA | -0.128
16 | HMTAPELGIRQDGNTLVIFWPSSVTGYVLKSADAVDTPPASWTSVTHTTVGDEHRAEITPTGNSRFFRLV | -0.156
17 | HMTAPQAQDYARVPDVLGLDMRESAQALRLDGFEMNAQGDGLAARQSPIGGSYAPEGTQVLVTFEM | 0.053
18 | HMTAQLAAQERTHALDMFMGGYKFSSKPAENGVRAEFEKKNFTLEDGKFLGGDEFMKSLMENDDYKGAFV | 0.406
19 | HMTASKSTVSTPEKVVYHIVFPKETKYSIAKKYGITIEELEKRNPEIIPSLSVGQKLVIKGTAPK | -0.236
20 | HMTATDRQLQLIAYTAARLMAEQGIADFNAAKRKAIQTLGLPNNAKLPGNADVEAQLRAYQRIF | -0.605
21 | HMTATKDLPFSTFITEVEKGNITSVDIKGNQIEGTFSNGAKFKTYSPNYPNLVERLADKGVAISAGPS | 0.0934
22 | HMTAVPADVETVTGFTALDRAGLDTLLARLGLAMDLEDLSFLQAYFRDTERRDPTLTEIRVVDTYWSDH | -1.1
23 | HMTDAEQHEALLFKQVVDGLPQTLRDTFVLSRHAGMTYAEISAHTGTPIKTVESRMAKALELIAQRMR | -1.27
24 | HMTDDALIGKTAQVTVAIKPGSVGQITARVGDERVERLARASADAEIAAGSLVTIKSIAGDSVIVAPE | 0.317
25 | HMTDDPGLSRAENRELQTLLLDRGHDIGQPDGLIGAKTRAAIRAEQSRLNMPVNGRGGQKLLRALRL | 0.262
26 | HMTDFLKTRIDTLGLSTRTLNALSEANVRTIGGIARKKQEDLLEIDGIGEKGIQEIKKMLGEYGITL | -0.303

Row | Sequence | soluble fraction (log2)
27 | HMTDFSDLSFKYNSEEKDVLNSINLKINGGEMTSLVGHSGAGKTTILNLIPRFYEKSKGDISIDGQSIY | 0.0241
28 | HMTDGLTVPMQGVVIRYKAKKGDKVAVGDAVAVLEAMKMEQNIFANKSGTIKEIYIKEGTTVTPGDVLMSI | -0.315
29 | HMTDLNDTQIKILELLSADASLSAAKMAGQLGIAGRNVEANIKKLKEKGILIRHGSPKSGYWEIVN | -0.349
30 | HMTDNSTTTIRNLKIEWLLEEIRNAVRTGVSVDAAVERISNNPFVKPPEDLLNEARIIFLQNAGQI | -0.79
31 | HMTDPVLYEERDDIAIITINRPEKKNTLTDAVIQGIADGIDAATKSADVVAVVLRGAGDTLTAGYDLTA | 0.213
32 | HMTDSDTQDIDVGELRVGHFVFLDLSWIRHPFPLSSFKIQSAEQIKTIRSLGLRRIRYSPGRSGP | -1.31
33 | HMTDSSEILEAALKEAEDAAHEVLNGTFSVQLEPQKAYIRRLQHMLIDRMNLSSTSKGKEPYRSLLVYR | -1.41
34 | HMTDTDVLSSRLSALSSGRTSAVRLRDGVLSLVLDVGGLSIEARKAMTTAIESTARATPGVEAVRIAET | -0.479
35 | HMTDTSFPRLGAPEEELLSFLAKWEIDAEDAHYTKFSLYYQSTGKMMRDWKATWRAWKERQSELNAQR | -2.33
36 | HMTDVGLEAAKAAALKHAGLSADQVTGLTAKLDWDDGQRVYEVDFWQGSTEYEYEINADGTVRQYESEAH | ≥ 1.04
37 | HMTDVRFIDIPVTEHHPWNGMKVRDLQLPPGTLLVFLSHPGEKNTVPHGETVLRSGDVLVLGATAYTGQ | -0.753
38 | HMTDVRFISIPIQKEHPWNRKLVSELNLPPGTLLVFLRRTGENIVPNGKTMIQEGDVLVLGASAYR | -1.31
39 | HMTEALEFTVEDLRMAGLVNSSFSRRRRELFSEKLGIGYGNGKSLLKKLNGYGITREEFNGAIQSLSD | -0.817
40 | HMTEIILTARSGRHAVRHRLEGLGYTLTPEELERVHQRFLAVADAKKEVFDEDLHALMADERGT | -0.219
41 | HMTEKMILKWKEALERMNDDFTTKDWLNVVIHEMGKSERTAYGWLSDMKRSGIIKDLGYGSWLKVLE | -1.37
42 | HMTEKPTREAHILDQLARDGGVLVAALSRELGVSEVTIRSDLRDLEAAGLLQRTHGGAQASSFQTVL | -0.0942
43 | HMTELNNTQRAAVLLLALDEDSAAEVFKHLSAREVQEVSQEMAKLGNISHDQMRQVLDDFYDESEQF | -0.127
44 | HMTELPLTPRSKRILEMSALEARRLNHSYIGTEHLLMAIIRDGDGVAAKILESLGVNLPNFYTDTVRSIE | 0.0533
45 | HMTELSLSEQAYQQLRRMIVRLDFAPGDVLREEALQEALGMSRTPIREALQRLAREHFVTVIPRRGMFVS | -3.15
46 | HMTELVIPDYFSKALAKNKKAKQVFEAFAYSHRKEYLQWITEAKTEETRNKRMATAIEWIAEGKGRNWKYA | -3.45
47 | HMTEPIESVTTIAGRRIPYRLVRSLRARRMRMTIKESQVTVTLPRGVPLGEAERFLQQNAAWLFKQLDKP | -2.63
48 | HMTESIHVGSKVTINNNAKRWATGQNIYSGVKGKTYTVIQMNGSRLLLDKVISWINKGDVHLPGS | -1.94
49 | HMTESIKRDEAIRLNNGRIYTLDAAKIGTNEYEVMLFNPRTGEEIDSAKTSTEADAILQFDRLRRMYHR | 0.0129
50 | HMTETELYDEVNRLIGLHLSERDRMILIMRDRDEFEIDAIAARTGLSEGNIRLILSRARRTVREAYRNNI | -4.11
51 | HMTETNSVTINERLTLYRRSRSGRWQARVKLNTGEWHRFSTGTADFEKAKESAHRELHNVGFRAENNLPQ | -1.16
52 | HMTFDWAAYEISEKEIRVMSLVAEGFSNKEIAQELFLSEGTVRNYISNILEKLGLRDRTQLAVHYLKAV | -3.83

Row | Sequence | soluble fraction (log2)
53 | HMTFENMFIENSGETLDREFLVENLRGISWQSYDRSVDVLVSRLRGKLGETPNNTRFIKTIHGVGYKFIGE | 0.353
54 | HMTFGENLIRLRRQQGLSQEQLGMRIGVSRQTVSKWELNDTTPEMEKLIALADLFGLSLDELTGRV | -0.974
55 | HMTFNLDVDGDDQVTALGDGLMIIRKLFGATFAGDALTNKAISPDATRTTDEIHAYIEKGITSGVLD | -0.403
56 | HMTFPAILRELLEKHPQTGKRTTLKELGEAVGTRQQSISLYRNGDTQPSPDILVRIAAFFGVSVDYLL | -0.499
57 | HMTFPYTSLKDAPKNMKEIDGVPLTLDQVNQIAKVADSIGVSKEKNGYAIAKSQFKKSHHIENNRWVKNK | -0.179
58 | HMTFVHTQIEATKEWIISHPLDKHPAVAVVDSAGSIVIGEVDYISKSIVRLRFTAEFSGKAYL | -2.06
59 | HMTGAEGKLARYLLTVPSGEPLRLSATDLAKRLGISRASLYRAFQALEDARLIRREGKSMYVLDPAGLEGV | -0.723
60 | HMTGENWAERSRQLAAAGLLVLGKEAQEKIASLPNLIPLIEAAAASDTRLLNAQTIDELLSFVPTEETI | -0.104
61 | HMTGESVPAPLSGTIFKILVAPGEQVEEGQTVIILEAMKMETEISAPRSGVVGAINIKEGDSVQVGQSLFT | 0.232
62 | HMTGIKISVDRLQIGNYVKLPLNWKDHPFLFSSFAIKSQEEIDLIRRLGLKQVIMFPDKSSMPPKPV | -1.55
63 | HMTGLSNFEFNQIKLDLMHELTQTPLRLTDLVNRITSFENEKTITVIRFLVDEGILLLKDDTLSVAKID | -3.06
64 | HMTGMEAAEFGKRIMKLRKQKGMTQSKLAEQINVSNKAISRWETGEGFPEITLLKPLAKALGTTVDELFGE | -0.334
65 | HMTGMEKFLTIPSIRESTAAFEREYLIHYLDENAWQVSKTAAAIGIERTTLYKKMKQLGIVPIEE | -3.22
66 | HMTGNWRQMHKVKSKETIYGIAKEYGITVDELTKANPGMEAPGYTLKKGDYIFIPYATADANV | -0.432
67 | HMTGQEGLIGAHGVALTRLSNEEGEVKVQGEIWQARSDQEVAKGASIEVVHVDGLVLTVRPQH | -0.0319
68 | HMTGQLTEEELKQRQERAMSNPEIQGILSDPVMRQVLQDMSTDPKAAAEHQRNPTIMAKIQKLINAGIVQV | 0.00889
69 | HMTGSETLQDIFAHLEAGTVRTALSLIPRLDAVEYEQNRQRIAELAGVRPSALDDLRKQAKREEN | ≥ 1.04
70 | HMTGTKEQQVVMLNNILQKQLQAFELQGKRDYPMVTMKNMYNTLSKMVENAGLQTVESYFVDPIKGQQM | -0.694
71 | HMTGVEAIERYLASGVIPGVGPVLAKRLVERFGARTLEVIEDSPRRLTQVPGIGRQKARQIHQALKAQRE | -0.406
72 | HMTGYVMIRVDGLSLEKFLNMAAEAGVRVSDVRRASYTVLYAVVSPRDLKKLQSVAPEKYTVTVR | -1.18
73 | HMTHANAALTPRHRLKVARLVVDEGWPVSEVAARFQVSWPTVKRWADRYRAGQSMQDRSSRP | -1.96
74 | HMTHEAEDLNALRMMVRDPIFSSDEPDLQQLRGAVAHAPQFVDRFKELYNDYQRLAEFVQNSL | -0.993
75 | HMTHFRTDERRREILSTIEADGRVSVSEIASRFDVSPVTIRSDLNYLAIQGKLKRVRGGAVLLDH | -1.17
76 | HMTIDNPESQKIMDMVPFFFQSRNYDEAIEALTYVIEQEPQFSEAYNKRATFYFMMGDLENSMKDIEITLA | -0.29
